Measured values from IntAct's records for PubMed 20023629.

Biological target: mcl1_human MCL1 (UniProt Q07820)
Sequence (Q07820 whole entry): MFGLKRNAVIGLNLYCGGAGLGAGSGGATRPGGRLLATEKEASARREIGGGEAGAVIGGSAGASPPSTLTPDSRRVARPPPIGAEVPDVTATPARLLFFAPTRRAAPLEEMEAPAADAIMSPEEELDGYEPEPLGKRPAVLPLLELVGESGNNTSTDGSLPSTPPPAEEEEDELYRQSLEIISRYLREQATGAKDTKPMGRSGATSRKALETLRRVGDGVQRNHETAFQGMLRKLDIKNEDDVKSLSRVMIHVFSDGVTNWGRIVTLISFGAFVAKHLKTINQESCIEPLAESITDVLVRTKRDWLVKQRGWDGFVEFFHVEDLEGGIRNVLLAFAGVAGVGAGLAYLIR

Substance: Ubiquitin carboxyl-terminal hydrolase 9X (Homo sapiens), Q93008 C1566S
- effect of a mutation on the interaction: disrupting interaction
